{"source": "paper PMC4381924", "key": {"IGF1R ECD-TM-fp (human) [1]": {"target": "IGF1R ECD-TM-fp (human)"}, "IGF1R ECD-TM-fp (human) [2]": {"target": "IGF1R ECD-TM-fp (human)", "assay": "FRET or BRET; spectrally resolved two-photon FRET on living, serum-starved CHO cells; mTurquoise donor, EYFP acceptor; FRET efficiency per membrane pixel; with IGF1"}, "IGF1R ECD-TM-fp (human) [3]": {"target": "IGF1R ECD-TM-fp (human)", "assay": "FRET or BRET; quantitative imaging FRET (QI-FRET) in plasma-membrane vesicles derived from transfected CHO cells; intrinsic FRET corrected for proximity FRET and donor-to-acceptor ratio; with IGF1"}, "[4]": {"target": "IGF1R ECD-TM-fp H905C (human)", "assay": "FRET or BRET; quantitative imaging FRET (QI-FRET) in plasma-membrane vesicles derived from transiently co-transfected CHO cells; EYFP donor, mCherry acceptor; confocal microscopy at room temperature; intrinsic FRET corrected for proximity FRET and donor-to-acceptor ratio; without IGF1"}, "[5]": {"target": "IGF1R ECDΔL1-TM-fp (human)", "assay": "FRET or BRET; quantitative imaging FRET (QI-FRET) in plasma-membrane vesicles derived from transiently co-transfected CHO cells; EYFP donor, mCherry acceptor; confocal microscopy at room temperature; intrinsic FRET corrected for proximity FRET and donor-to-acceptor ratio; without IGF1"}, "IGF1R TM-fp (human)": {"target": "IGF1R TM-fp (human)", "assay": "FRET or BRET; spectrally resolved two-photon FRET on living, serum-starved CHO cells; mTurquoise donor, EYFP acceptor; FRET efficiency per membrane pixel; without IGF1"}, "[6]": {"target": "IGF1R TM-icd H905C (human)", "assay": "cross-linking; disulfide bond between introduced cysteines; HEK293 cells incubated with or without IGF1, lysed in RIPA buffer with 10 mM iodoacetamide; non-reducing against reducing SDS-PAGE, anti-IGF1Rβ Western blot"}}, "note": "Several values for one entry are separate records, joined by “and”; a condition that tells them apart may be missing. Equal entries are not always repeated."}
{"substance": "IGF1 (from UniProt P05019 49-118) (ligand)", "values": [{"measurement": "FRET efficiency between co-transfected donor- and acceptor-tagged IGF1R ECD-TM-fp in membranes of live CHO cells, with against without ligand", "setting": "IGF1R ECD-TM-fp (human) [1]", "result": 2, "unit": "fold"}]}
{"substance": "IGF1R ECD-TM-fp (domain or fragment)", "values": [{"measurement": "FRET efficiency per membrane pixel (peak of a normal distribution)", "setting": "IGF1R ECD-TM-fp (human) [2]", "result": 0.34}, {"measurement": "intrinsic FRET efficiency (y intercept of a horizontal line)", "setting": "IGF1R ECD-TM-fp (human) [3]", "result": 0.34}]}
{"substance": "IGF1R ECD-TM-fp H905C (domain or fragment)", "values": [{"measurement": "intrinsic FRET efficiency (y intercept of a horizontal line)", "setting": "[4]", "result": 0.38}]}
{"substance": "IGF1R ECDΔL1-TM-fp (domain or fragment)", "values": [{"measurement": "intrinsic FRET efficiency (y intercept of a horizontal line)", "setting": "[5]", "result": 0.36}]}
{"substance": "IGF1R TM-fp (domain or fragment)", "values": [{"measurement": "FRET efficiency per membrane pixel (peak of a two state distribution)", "setting": "IGF1R TM-fp (human)", "result": "0.37 and 0.33"}]}
{"substance": "IGF1R TM-icd H905C (domain or fragment)", "values": [{"measurement": "stoichiometry N", "setting": "[6]", "result": 2}]}
